Laboratory results reported in patent US20230203177A1 (Bristol-Myers Squibb, published 2023).

Target: T1, soluble human CD40 extracellular domain (human, UniProt P25942 21-193)
T1 construct: Produced in house; also called hCD40; soluble hCD40 extracellular domain
Assay: SPR, Ab captured from supernatant on protein A, hCD40 ECD analyte
Summary of the method: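 Biacore T200, 25 °C, PBS-T pH 7.2; antibodies (3 μg/ml, supernatants titre-normalised) captured on protein A chip 30 s. Human CD40 ECD analyte (5 and 50 nM, or 50 and 500 nM), 180 s association and 180 s dissociation at 30 μl/min; 1:1 Langmuir fit.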

T1 sequence (P25942 21-193 limits assumed): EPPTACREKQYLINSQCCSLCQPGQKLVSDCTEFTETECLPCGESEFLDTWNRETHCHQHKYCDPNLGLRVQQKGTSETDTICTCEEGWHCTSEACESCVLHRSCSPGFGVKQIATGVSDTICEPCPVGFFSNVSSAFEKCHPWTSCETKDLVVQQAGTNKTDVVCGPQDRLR

| Binder | Kd [nM] |
| --- | --- |
| M70 (HC-K12V,K19S,K23A / LC-R61Q) (antibody, human IgG1, kappa, V domains shown, IgG1-P238K; also called HC6/LC5) VH: QVQLVQSGAEVVKPGSSVSVSCAASGYAFTSYWMHWVRQAPGQGLEWMGQINPTTGRSQYNEKFKTRVTITADKSTSTAYMELSSLRSEDTAVYYCARWGLQPFAYWGQGTLVTVSS VL: DIQMTQSPSFLSASVGDRVTITCKASQDVSTAVAWYQQKPGKAPKLLIYSASYRYTGVPSQFSGSGSGTDFTLTISSLQPEDFATYYCQQHYSTPWTFGGGTKVEIKR | 3.5 |
| M73 (HC-K63Q,R67E / LC-R61Q) (antibody, human IgG1, kappa, V domains shown, IgG1-P238K; also called HC9/LC5) VH: QVQLVQSGAEVKKPGSSVKVSCKASGYAFTSYWMHWVRQAPGQGLEWMGQINPTTGRSQYNEQFKTEVTITADKSTSTAYMELSSLRSEDTAVYYCARWGLQPFAYWGQGTLVTVSS VL: DIQMTQSPSFLSASVGDRVTITCKASQDVSTAVAWYQQKPGKAPKLLIYSASYRYTGVPSQFSGSGSGTDFTLTISSLQPEDFATYYCQQHYSTPWTFGGGTKVEIKR | 3 |
| M72 (HC-R38Q,K63Q,R67Q / LC-R61Q) (antibody, human IgG1, kappa, V domains shown, IgG1-P238K; also called HC8/LC5) VH: QVQLVQSGAEVKKPGSSVKVSCKASGYAFTSYWMHWVQQAPGQGLEWMGQINPTTGRSQYNEQFKTQVTITADKSTSTAYMELSSLRSEDTAVYYCARWGLQPFAYWGQGTLVTVSS VL: DIQMTQSPSFLSASVGDRVTITCKASQDVSTAVAWYQQKPGKAPKLLIYSASYRYTGVPSQFSGSGSGTDFTLTISSLQPEDFATYYCQQHYSTPWTFGGGTKVEIKR | 2.9 |
| M93 (HC-E46K,E62K / LC-K107Q,R108Q) (antibody, human IgG1, kappa, IgG1-P238K; also called HC13/LC6) heavy: not shown light: DIQMTQSPSFLSASVGDRVTITCKASQDVSTAVAWYQQKPGKAPKLLIYSASYRYTGVPSRFSGSGSGTDFTLTISSLQPEDFATYYCQQHYSTPWTFGGGTKVEIQQTVAAPSVFIFPPSDEQLKSGTASVVCLLNNFYPREAKVQWKVDNALQSGNSQESVTEQDSKDSTYSLSSTLTLSKADYEKHKVYACEVTHQGLSSPVTKSFNRGEC | 8.1 |
| M77 (HC-E46K,E62K / LC-R61Q) (antibody, human IgG1, kappa, V domains shown, IgG1-P238K; also called HC13/LC5) VH: QVQLVQSGAEVKKPGSSVKVSCKASGYAFTSYWMHWVRQAPGQGLKWMGQINPTTGRSQYNKKFKTRVTITADKSTSTAYMELSSLRSEDTAVYYCARWGLQPFAYWGQGTLVTVSS VL: DIQMTQSPSFLSASVGDRVTITCKASQDVSTAVAWYQQKPGKAPKLLIYSASYRYTGVPSQFSGSGSGTDFTLTISSLQPEDFATYYCQQHYSTPWTFGGGTKVEIKR | 7.9 |
| M87 (HC-K23E / LC-K107Q,R108Q) (antibody, human IgG1, kappa, IgG1-P238K; also called HC7/LC6) heavy: not shown light: DIQMTQSPSFLSASVGDRVTITCKASQDVSTAVAWYQQKPGKAPKLLIYSASYRYTGVPSRFSGSGSGTDFTLTISSLQPEDFATYYCQQHYSTPWTFGGGTKVEIQQTVAAPSVFIFPPSDEQLKSGTASVVCLLNNFYPREAKVQWKVDNALQSGNSQESVTEQDSKDSTYSLSSTLTLSKADYEKHKVYACEVTHQGLSSPVTKSFNRGEC | 4.3 |
| M91 (HC-R57E / LC-K107Q,R108Q) (antibody, human IgG1, kappa, IgG1-P238K; also called HC11/LC6) heavy: not shown light: DIQMTQSPSFLSASVGDRVTITCKASQDVSTAVAWYQQKPGKAPKLLIYSASYRYTGVPSRFSGSGSGTDFTLTISSLQPEDFATYYCQQHYSTPWTFGGGTKVEIQQTVAAPSVFIFPPSDEQLKSGTASVVCLLNNFYPREAKVQWKVDNALQSGNSQESVTEQDSKDSTYSLSSTLTLSKADYEKHKVYACEVTHQGLSSPVTKSFNRGEC | 9.6 |
| M88 (HC-R38Q,K63Q,R67Q / LC-K107Q,R108Q) (antibody, human IgG1, kappa, IgG1-P238K; also called HC8/LC6) heavy: not shown light: DIQMTQSPSFLSASVGDRVTITCKASQDVSTAVAWYQQKPGKAPKLLIYSASYRYTGVPSRFSGSGSGTDFTLTISSLQPEDFATYYCQQHYSTPWTFGGGTKVEIQQTVAAPSVFIFPPSDEQLKSGTASVVCLLNNFYPREAKVQWKVDNALQSGNSQESVTEQDSKDSTYSLSSTLTLSKADYEKHKVYACEVTHQGLSSPVTKSFNRGEC | 3.2 |
| M89 (HC-K63Q,R67E / LC-K107Q,R108Q) (antibody, human IgG1, kappa, IgG1-P238K; also called HC9/LC6) heavy: not shown light: DIQMTQSPSFLSASVGDRVTITCKASQDVSTAVAWYQQKPGKAPKLLIYSASYRYTGVPSRFSGSGSGTDFTLTISSLQPEDFATYYCQQHYSTPWTFGGGTKVEIQQTVAAPSVFIFPPSDEQLKSGTASVVCLLNNFYPREAKVQWKVDNALQSGNSQESVTEQDSKDSTYSLSSTLTLSKADYEKHKVYACEVTHQGLSSPVTKSFNRGEC | 3.3 |
| M82 (HC-K12Q,K13Q / LC-K107Q,R108Q) (antibody, human IgG1, kappa, IgG1-P238K; also called HC2/LC6) heavy: not shown light: DIQMTQSPSFLSASVGDRVTITCKASQDVSTAVAWYQQKPGKAPKLLIYSASYRYTGVPSRFSGSGSGTDFTLTISSLQPEDFATYYCQQHYSTPWTFGGGTKVEIQQTVAAPSVFIFPPSDEQLKSGTASVVCLLNNFYPREAKVQWKVDNALQSGNSQESVTEQDSKDSTYSLSSTLTLSKADYEKHKVYACEVTHQGLSSPVTKSFNRGEC | 3.2 |
| M86 (HC-K12V,K19S,K23A / LC-K107Q,R108Q) (antibody, human IgG1, kappa, IgG1-P238K; also called HC6/LC6) heavy: not shown light: DIQMTQSPSFLSASVGDRVTITCKASQDVSTAVAWYQQKPGKAPKLLIYSASYRYTGVPSRFSGSGSGTDFTLTISSLQPEDFATYYCQQHYSTPWTFGGGTKVEIQQTVAAPSVFIFPPSDEQLKSGTASVVCLLNNFYPREAKVQWKVDNALQSGNSQESVTEQDSKDSTYSLSSTLTLSKADYEKHKVYACEVTHQGLSSPVTKSFNRGEC | 3.7 |
| M74 (HC-R67E / LC-R61Q) (antibody, human IgG1, kappa, V domains shown, IgG1-P238K; also called HC10/LC5) VH: QVQLVQSGAEVKKPGSSVKVSCKASGYAFTSYWMHWVRQAPGQGLEWMGQINPTTGRSQYNEKFKTEVTITADKSTSTAYMELSSLRSEDTAVYYCARWGLQPFAYWGQGTLVTVSS VL: DIQMTQSPSFLSASVGDRVTITCKASQDVSTAVAWYQQKPGKAPKLLIYSASYRYTGVPSQFSGSGSGTDFTLTISSLQPEDFATYYCQQHYSTPWTFGGGTKVEIKR | 2.9 |
| M79 (HC-R67Q / LC-R61Q) (antibody, human IgG1, kappa, V domains shown, IgG1-P238K; also called HC15/LC5) VH: QVQLVQSGAEVKKPGSSVKVSCKASGYAFTSYWMHWVRQAPGQGLEWMGQINPTTGRSQYNEKFKTQVTITADKSTSTAYMELSSLRSEDTAVYYCARWGLQPFAYWGQGTLVTVSS VL: DIQMTQSPSFLSASVGDRVTITCKASQDVSTAVAWYQQKPGKAPKLLIYSASYRYTGVPSQFSGSGSGTDFTLTISSLQPEDFATYYCQQHYSTPWTFGGGTKVEIKR | 3.5 |
| M92 (HC-R57E,K74Q / LC-K107Q,R108Q) (antibody, human IgG1, kappa, IgG1-P238K; also called HC12/LC6) heavy: not shown light: DIQMTQSPSFLSASVGDRVTITCKASQDVSTAVAWYQQKPGKAPKLLIYSASYRYTGVPSRFSGSGSGTDFTLTISSLQPEDFATYYCQQHYSTPWTFGGGTKVEIQQTVAAPSVFIFPPSDEQLKSGTASVVCLLNNFYPREAKVQWKVDNALQSGNSQESVTEQDSKDSTYSLSSTLTLSKADYEKHKVYACEVTHQGLSSPVTKSFNRGEC | 13.4 |
| M83 (HC-K12Q,K13Q,K23Q / LC-K107Q,R108Q) (antibody, human IgG1, kappa, IgG1-P238K; also called HC3/LC6) heavy: not shown light: DIQMTQSPSFLSASVGDRVTITCKASQDVSTAVAWYQQKPGKAPKLLIYSASYRYTGVPSRFSGSGSGTDFTLTISSLQPEDFATYYCQQHYSTPWTFGGGTKVEIQQTVAAPSVFIFPPSDEQLKSGTASVVCLLNNFYPREAKVQWKVDNALQSGNSQESVTEQDSKDSTYSLSSTLTLSKADYEKHKVYACEVTHQGLSSPVTKSFNRGEC | 3.6 |
| M85 (HC-K12E,K13Q,K23E / LC-K107Q,R108Q) (antibody, human IgG1, kappa, IgG1-P238K; also called HC5/LC6) heavy: not shown light: DIQMTQSPSFLSASVGDRVTITCKASQDVSTAVAWYQQKPGKAPKLLIYSASYRYTGVPSRFSGSGSGTDFTLTISSLQPEDFATYYCQQHYSTPWTFGGGTKVEIQQTVAAPSVFIFPPSDEQLKSGTASVVCLLNNFYPREAKVQWKVDNALQSGNSQESVTEQDSKDSTYSLSSTLTLSKADYEKHKVYACEVTHQGLSSPVTKSFNRGEC | 3.3 |
| M71 (HC-K23E / LC-R61Q) (antibody, human IgG1, kappa, IgG1-P238K; also called HC7/LC5) heavy: not shown light: DIQMTQSPSFLSASVGDRVTITCKASQDVSTAVAWYQQKPGKAPKLLIYSASYRYTGVPSQFSGSGSGTDFTLTISSLQPEDFATYYCQQHYSTPWTFGGGTKVEIKRTVAAPSVFIFPPSDEQLKSGTASVVCLLNNFYPREAKVQWKVDNALQSGNSQESVTEQDSKDSTYSLSSTLTLSKADYEKHKVYACEVTHQGLSSPVTKSFNRGEC | 4.4 |
| M75 (HC-R57E / LC-R61Q) (antibody, human IgG1, kappa, V domains shown, IgG1-P238K; also called HC11/LC5) VH: QVQLVQSGAEVKKPGSSVKVSCKASGYAFTSYWMHWVRQAPGQGLEWMGQINPTTGESQYNEKFKTRVTITADKSTSTAYMELSSLRSEDTAVYYCARWGLQPFAYWGQGTLVTVSS VL: DIQMTQSPSFLSASVGDRVTITCKASQDVSTAVAWYQQKPGKAPKLLIYSASYRYTGVPSQFSGSGSGTDFTLTISSLQPEDFATYYCQQHYSTPWTFGGGTKVEIKR | 10.5 |
| M84 (HC-K12E / LC-K107Q,R108Q) (antibody, human IgG1, kappa, IgG1-P238K; also called HC4/LC6) heavy: not shown light: DIQMTQSPSFLSASVGDRVTITCKASQDVSTAVAWYQQKPGKAPKLLIYSASYRYTGVPSRFSGSGSGTDFTLTISSLQPEDFATYYCQQHYSTPWTFGGGTKVEIQQTVAAPSVFIFPPSDEQLKSGTASVVCLLNNFYPREAKVQWKVDNALQSGNSQESVTEQDSKDSTYSLSSTLTLSKADYEKHKVYACEVTHQGLSSPVTKSFNRGEC | 3.3 |
| M78 (HC-K74T / LC-R61Q) (antibody, human IgG1, kappa, V domains shown, IgG1-P238K; also called HC14/LC5) VH: QVQLVQSGAEVKKPGSSVKVSCKASGYAFTSYWMHWVRQAPGQGLEWMGQINPTTGRSQYNEKFKTRVTITADTSTSTAYMELSSLRSEDTAVYYCARWGLQPFAYWGQGTLVTVSS VL: DIQMTQSPSFLSASVGDRVTITCKASQDVSTAVAWYQQKPGKAPKLLIYSASYRYTGVPSQFSGSGSGTDFTLTISSLQPEDFATYYCQQHYSTPWTFGGGTKVEIKR | 4 |
| M90 (HC-R67E / LC-K107Q,R108Q) (antibody, human IgG1, kappa, IgG1-P238K; also called HC10/LC6) heavy: not shown light: DIQMTQSPSFLSASVGDRVTITCKASQDVSTAVAWYQQKPGKAPKLLIYSASYRYTGVPSRFSGSGSGTDFTLTISSLQPEDFATYYCQQHYSTPWTFGGGTKVEIQQTVAAPSVFIFPPSDEQLKSGTASVVCLLNNFYPREAKVQWKVDNALQSGNSQESVTEQDSKDSTYSLSSTLTLSKADYEKHKVYACEVTHQGLSSPVTKSFNRGEC | 3 |
| M76 (HC-R57E,K74Q / LC-R61Q) (antibody, human IgG1, kappa, V domains shown, IgG1-P238K; also called HC12/LC5) VH: QVQLVQSGAEVKKPGSSVKVSCKASGYAFTSYWMHWVRQAPGQGLEWMGQINPTTGESQYNEKFKTRVTITADQSTSTAYMELSSLRSEDTAVYYCARWGLQPFAYWGQGTLVTVSS VL: DIQMTQSPSFLSASVGDRVTITCKASQDVSTAVAWYQQKPGKAPKLLIYSASYRYTGVPSQFSGSGSGTDFTLTISSLQPEDFATYYCQQHYSTPWTFGGGTKVEIKR | 14.8 |
